From US20110301104A1, “Transition state structure of orotate phosphoribosyl transferases and uses thereof” (priority 2008, published 2011)

Legend:
Assay in all cases: purified protein, by the assay type
[1] = substrate: O=C(O)c1cc(=O)[nH]c(=O)n1[C@@H]1O[C@H](COP(=O)(O)O)[C@@H](O)[C@H]1O; type: biochemical, Plasmodium falciparum; details: 25° C., pH 8.0, 25.0 °C
Method: (§1) Expression and Purification of PfOPRT and HsOPRT. The pDEST14 vectors encoding the two OPRT genes were transformed into BL21-AI E. coli competent cells and grown in LB+Amp (100 μg mL^−1) at 37° C. to an OD600 of 0.6. Protein expression was induced by adding 0.02% L-arabinose with overnight growth at 37° C. Cells were harvested by centrifugation at 4° C., weighted and resuspended in lysis buffer (20 mM Tris-HCl, 500 mM NaCl and 5 mM Imidazole, pH=7.9, 3 mL/gram cell pellet). Lysozyme (100 μg mL^−1), DNase I (10 μg mL^−1) and protease inhibitor (1 tablet/8 grams of cells) (Roche Applied Science, Indianapolis, Ind.) were added to the solution. Following disruption in a French Press, cell lysate was centrifuged at 30,000 g for […] at 4° C. […] The 6×His-OPRTs were eluted with a gradient of imidazole (20 mM ˜500 mM). The OPRT bands were visualized on SDS-PAGE gels and fractions with high purity were pooled, made to 10% glycerol and 10 mM β-ME (final concentration), concentrated and dialyzed overnight at 4° C. to remove imidazole. His-tags were removed during dialysis by the presence of thrombin (1 unit/0.1 mg). His-tag free OPRTs were purified by Superdex 200 26/60 Gel filtration column, concentrated and stored at −80° C. […] Reactions were monitored by the absorbance increase at 295 nm to give an extinction coefficient of 3.67 mM^−1 cm^−1.

[2] = substrate: O=C(O)CP(=O)(O)O; type: biochemical, Plasmodium falciparum; details: other: PA as slow substrate
Method: as §1

[3] = substrate: O=C(O)c1cc(=O)[nH]c(=O)n1[C@@H]1O[C@H](COP(=O)(O)O)[C@@H](O)[C@H]1O; type: biochemical, human; details: 25° C., pH 8.0
Method: as §1

[4] = substrate: O=C(O)CP(=O)(O)O; details: other: PA as slow substrate
[5] = other: OMP with PA (20 mM) as substrate
[6] = other: OMP with PPi (1 mM) as substrate

B1: PfOPRT (Plasmodium falciparum 3D7) (protein)
chain: MTTIKENEFLCDEEIYKSFVHLKDKICEERKKKELVNNNIDNVNFNDDDDNNYDDDGNSYSSYIKEMKKLLKVVLLKYKALKFGEFILKSKRKSNYFFSSGVLNNIVSSNIICFLLSELILKNKLSFDYLLGASYKGIPMVSLTSHFLFESKKYSNIFYLYDRKEKKEYGDKNVIVGNLDDDDKDILNLKKKTKNNQDEEKKNIIIIDDVFTCGTALTEILAKLKTYEHLKVVAFIVLLNRNEYEINENNQKIYFKDIFEKRVGIPLYSILSYKDDIQSMI
notes: His6 (thrombin-cleavable) (N, cleaved yes); made in house; host or cells: E. coli BL21-AI
Protein B1 has a Km [1, 5] of 2.90 ± 1.09 µM, a kcat [1, 5] of 0.014 ± 0.002 s⁻¹ and a kcat/Km [1, 5] of 4800 M⁻¹ s⁻¹. It also gave a Km [1, 6] of 3.73 ± 1.36 µM, a kcat [1, 6] of 1.96 ± 0.29 s⁻¹ and a kcat/Km [1, 6] of 530000 M⁻¹ s⁻¹. For the same protein, the Km [2] was 1590 µM and the kcat [2] was 0.023 s⁻¹.

B2: HsOPRT (Homo sapiens) (protein)
chain: MAVARAALGPLVTGLYDVQAFKFGDFVLKSGLSSPIYIDLRGIVSRPRLLSQVADILFQTAQNAGISFDTVCGVPYTALPLATVICSTNQIPMLIRRKETKDYGTKRLVEGTINPGETCLIIEDVVTSGSSVLETVEVLQKEGLKVTDAIVLLDREQGGKDKLQAHGIRLHSVCTLSKMLEILEQQKKVDAETVGRVKRFIQENVFVAANHNGSPLSIKEAPKELSFGARAELPRIHPVASKLLR
notes: This HsUMPase truncation construct only expresses its HsOPRT domain; His6 (thrombin-cleavable) (N, cleaved yes); made in house; host or cells: E. coli BL21-AI
For B2, the Km [3, 5] was 2.14 ± 0.61 µM, the kcat [3, 5] was 0.017 ± 0.002 s⁻¹ and the kcat/Km [3, 5] was 7900 M⁻¹ s⁻¹. It also gave a Km [3, 6] of 1.55 ± 0.61 µM, a kcat [3, 6] of 0.10 ± 0.01 s⁻¹ and a kcat/Km [3, 6] of 65000 M⁻¹ s⁻¹. The Km [4] was 3840 µM and the kcat [4] was 0.017 s⁻¹.
